In patent CN114702585A (SHENZHEN BINDEBIO TECH CO LTD, dated 2022) one finds Kd data, which are given here for 1 molecule.

The assay addresses T1, CD22蛋白 (购自义翘神州) (UniProt P20273 20-687).
T1 construct: Bought recombinant protein; also called CD22蛋白抗原
T1 sequence (looked up): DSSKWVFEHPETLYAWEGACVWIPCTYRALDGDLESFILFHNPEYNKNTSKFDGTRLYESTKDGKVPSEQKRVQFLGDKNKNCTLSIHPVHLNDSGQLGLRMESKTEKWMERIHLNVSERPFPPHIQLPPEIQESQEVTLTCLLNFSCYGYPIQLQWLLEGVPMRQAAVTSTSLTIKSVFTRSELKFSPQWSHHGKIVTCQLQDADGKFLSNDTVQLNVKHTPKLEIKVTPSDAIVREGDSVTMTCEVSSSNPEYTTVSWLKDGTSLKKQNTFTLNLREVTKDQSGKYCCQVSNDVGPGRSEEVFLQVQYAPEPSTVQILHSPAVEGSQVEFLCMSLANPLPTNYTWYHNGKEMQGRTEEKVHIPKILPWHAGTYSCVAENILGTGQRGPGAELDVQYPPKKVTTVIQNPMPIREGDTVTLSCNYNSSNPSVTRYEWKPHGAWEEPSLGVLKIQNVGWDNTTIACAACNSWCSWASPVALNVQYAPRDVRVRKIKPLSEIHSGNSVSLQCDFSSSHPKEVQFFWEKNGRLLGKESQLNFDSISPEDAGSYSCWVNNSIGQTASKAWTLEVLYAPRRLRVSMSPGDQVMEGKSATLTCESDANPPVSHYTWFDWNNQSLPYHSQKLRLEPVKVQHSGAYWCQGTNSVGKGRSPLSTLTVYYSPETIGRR
Description: BLI (OCTET K2), CD22 protein loaded on AHC sensor, 4F6 in solution 500-5.21 nM.

B1: 抗CD22的单克隆抗体4F6 (antibody, V domains shown)
VH: EVLLQQSGPELVKPGASVKIPCKASGYTFTDYNMDWVKQSHGKSLEWIGDIDPNNGITIYNQKFKGKATLTIDKSSSTAYMELRSLTSEDTAVYYCARDRYDRGYALDYWGQGTSVTVSS
VL: DIVMTQSPSSLAMSVGQKVTMSCKSSQSLLNSSNQKNYLAWHQQKTGQSPKLLVYFASIRDSGVPDRFIGSGSGTDFTLTINSVQAEDLADYFCQQHYSTPFTFGSGTKLEIK
notes: also called 4F6抗体; CD22单克隆抗体
Take B1: the affinity, expressed as Kd, was 3.14 nM.

The Kd is the concentration at which binding is half-saturated.
